Source: paper PMC12477886

Biological target: SARS-CoV-2 WA1/2020 S2 protein (stabilized prefusion spike S2 trimer) (SARS-CoV-2 (USA-WA1/2020)) (UniProt P0DTC2)
Experiment: cryo-EM structure

**Q.** How did the stoichiometry N turn out when “SARS-CoV-2 WA1/2020 S2 protein (stabilized prefusion spike S2 trimer) (from UniProt P0DTC2) (domain or fragment)” was run?
**A.** 3
